Measured values reported in patent US20230391843A1, “COMPOSITION AND METHOD FOR CONTROLLING HEAT GENERATION WITHIN ORGANISM, AND USE” (GUANGDONG JIANTEBO BIOTECHNOLOGY CO., LTD., priority 2021, published 2023).
“Also recorded” adds a separate entry of the source.

Columns and labels:
[1] = tested on: primary beige adipocytes; test: primary beige adipocytes treated with IL-27 in vitro, immunoblot analysis; format: cell-based, mouse; settings: rmIL-27 100 ng/ml
Experimental: A whole cell lysate or tissue lysate was extracted using an RIPA lysis buffer (Beyotime, China) supplemented with a complete protease inhibitor (Roche) and a phosphatase inhibitor Cocktail 2 (P5726, Sigma), and a supernatant was used for subsequent analysis. Proteins were diluted in a Loading dye (BL502A, Bio-sharp), heated at 95° C. for 10 min, and separated on 4-12% polyacrylamide gel. The proteins were transferred to polyvinylidene fluoride membranes and western blot experiments were performed with the commercial antibodies and methods-reagents mentioned in the drawing.
Inguinal subcutaneous adipose tissue was minced and digested at 37° C. for 45 min in PBS containing collagenase II (1 mg/ml), and a tissue suspension was filtered by a 100 μm cell filter and centrifuged at 600 g for 5 min, such that a stromal vascular fraction (SVF) was granulated. After granulation, the product was further filtered by a 40 μm cell filter and placed on a collagen-coated plate. After overnight culturing, a supernatant containing non-adherent cells was removed. Precursor adipocytes were grown in DMEM containing 10% FBS and insulin (5 μg/ml) for fusion. The product was treated for 2 days with dexamethasone (1 μM), 3-isobutyl-1-methylxanthine (IBMX, 0.5 mM), insulin (5 μg/ml), indomethacin (125 nM) and rosiglitazone (1 μM) to induce differentiation of the fused cells, and then independently treated for another 5 days with insulin (5 μg/ml) and triiodothyronine (T3, 1 nM). On day 7, the cells were pretreated overnight with and without IL-27 (100 ng/ml) and then treated with isoproterenol (10 μM) or forskolin (10 μM) for 4-6 hours. IL-27 (100 ng/ml) was added for treatment for 0-120 min on day 7 for protein phosphorylation analysis, or for 12-24 h for protein expression level detection. For signal inhibition experiments, either the STAT3 inhibitor (C188-9, 10 μM) or the p38 MAPK inhibitor (SB203580, 10 μM) was added to a medium 0.5 h prior to and during IL-27 treatment.
FIG. 3A-FIG. 3M show promotion of heat generation by IL-27. As for FIG. 3A: primary beige adipocytes were generated in vitro from an SVF of WT SCW and then treated with rmIL-27 (100 ng/ml) or PBS for 24 hours. Cells were lysed and a protein extract was used for immunoblot analysis. As for FIG. 3B: immunoblot analysis of phosphorylation of the protein in the WT primary beige adipocyte extract treated with the rmIL-27 (100 ng/ml) for a specified time was shown. As for FIG. 3C: the primary beige adipocytes derived from WT SCW were generated in vitro. The STAT3 inhibitor (C188-9, 10 μM) or p38 MAPK inhibitor (SB203580, 10 μM) was added to a medium 0.5 hours prior to culturing and in duration of rmIL-27 treatment (100 ng/ml for 12 hours). Cell lysis and the representative immunoblot of the protein extract were shown. As for FIG. 3D-FIG. 3J: WT mice were fed with HFD for 32 weeks and then injected intraperitoneally. Every other day, rmIL-27 (100 μg/kg) or PBS was injected for 15 days. As for FIG. 3D: body weight was recorded at specified time points (n=8). As for FIG. 3E: after rmIL-27 treatment for 15 days, adipose tissue was collected and weighed (n=6-8) for a glucose tolerance test (FIG. 3F, n=8) and an insulin tolerance test (FIG. 3G, n=8). As for FIG. 3H: the mice were fasted overnight and then injected intraperitoneally with 0.75 U/kg insulin (15 min). Immunoblot analysis of pAKT (pSer473) in epididymal fat was performed. As for FIG. 3I: after rmIL-27 treatment for 15 days, oil-red O liver tissue staining was performed, with the scale=50 μm. As for FIG. 3J-FIG. 3M: UCP1-KO mice were fed with HFD for 20 weeks and then injected intraperitoneally with rmIL-27 (100 μg/kg) or PBS every other day for 15 days. As for FIG. 3J: body weight was recorded at specified time points (n=6). As for FIG. 3K: adipose tissue and livers were collected and weighed after rmIL-27 treatment for 15 days (n=6), and GTT (FIG. 3L, n=6) and ITT (FIG. 3M, n=4) tests were performed after rmIL-27 treatment for 15 days. […]

[2] = tested on: EBI-3 KO mice; test: cold stimulation experiment at 4° C. after rmIL-27 treatment of EBI-3 KO mice; format: in vivo, mouse; settings: rmIL-27 100 μg/kg intraperitoneally for 7 consecutive days, then cold stimulation at 4° C.
Experimental: Cold stimulation experiments were performed in a temperature controlled cold room. Mice were placed individually in individual cages (without bedding) at 4° C. The mice had free access to food and water. Rectal core body temperatures were recorded every 2 hours using a digital thermometer and a rectal thermocouple probe (TH-212, HICHANCE, China). If the core body temperature fell below 20° C., the individual mice were euthanized and scored as events for survival analysis.
8-week-old WT mice were fed with HFD for 32 weeks and randomly divided into 2 groups. The mice were injected intraperitoneally with rmIL-27 (100 μg/kg) or PBS for 15 consecutive days, and then, metabolic analysis was performed. 12-month-old EBI-3 KO mice were randomly divided into 2 groups, and injected intraperitoneally with rmIL-27 (100 μg/kg) or PBS for 7 consecutive days. The mice were then subjected to a cold stimulation experiment at 4° C.
As for FIG. 7A-FIG. 7C: 8-week-old Il27ra^f/f and Ucp1-Cre Il27ra^f/f mice were fed with HFD for 10 weeks. After HFD treatment for 10 weeks, GTT (FIG. 7A) and ITT (FIG. 7B) (n=5-6) tests were performed, and adipose tissue and livers were collected and weighed (FIG. 7C, n=5-6). […] Expression of UCP1 was detected by immunoblot. […] Expression of UCP1 or PPARα was analyzed by an immunoblot. […] A band density was quantified and normalized with ImageJ. […]

[3] = 0-120 min, immunoblot (FIG. 3B)

B1: IL-27: Recombinant mouse IL-27 (EBI-3/p28 heterodimer cytokine), purchased from Biolegend (577408) (protein, UniProt O35228 19-228; Q8K3I6 29-234, looked up)
Interleukin-27 subunit beta: YTETALVALSQPRVQCHASRYPVAVDCSWTPLQAPNSTRSTSFIATYRLGVATQQQSQPCLQRSPQASRCTIPDVHLFSTVPYMLNVTAVHPGGASSSLLAFVAERIIKPDPPEGVRLRTAGQRLQVLWHPPASWPFPDIFSLKYRLRYRRRGASHFRQVGPIEATTFTLRNSKPHAKYCIQVSAQDLTDYGKPSDWSLPGQVESAPHKP
Interleukin-27 subunit alpha: FPTDPLSLQELRREFTVSLYLARKLLSEVQGYVHSFAESRLPGVNLDLLPLGYHLPNVSLTFQAWHHLSDSERLCFLATTLRPFPAMLGGLGTQGTWTSSEREQLWAMRLDLRDLHRHLRFQVLAAGFKCSKEEEDKEEEEEEEEEEKKLPLGALGGPNQVSSQVSWPQLLYTYQLLHSLELVLSRAVRDLLLLSLPRRPGSAWDS
[1]; [3]
  Phosphorylation of p38 MAPK: significantly increased
  pSTAT3: only transiently induced and rapidly regressed
[1]; 24 hours, immunoblot (FIG. 3A)
  expression of UCP1: significantly increased
  expression of peroxisome proliferator-activated receptor α (PPARα): up-regulated
  expression of peroxisome proliferator-activated receptor γ co-activator 1α (PGC-1α): up-regulated
[1]; immunoblot (FIG. 3A-3C)
  activation of ATF2: enhanced
[2]
  UCP1-mediated heat generation: improved
[2]; rectal temperature
  body temperature / hypothermia in cold stimulation: avoided low temperatures; also recorded: reverse hypothermia
